{"source": "patent US20190184015A1", "about": "“IRRADIATION TREATMENT OF NEUROLOGICAL SENSATIONS BY PHOTOABLATION” (European Molecular Biology Laboratory, priority 2016, published 2019)", "molecules": {"B1": {"name": "IL31^SNAP: recombinant IL31 with a C-terminal fusion of SNAP, produced in E. Coli (protein)", "chain": "TCSLSFGAPISKEDLRTTIDLLKQESQDLYNNYSIKQASGMSADESIQLPCFSLDREALTNISVIIAHLEKVKVLSENTVDTSWVIRWLTNISCFNPLNLNISVPGNTDESYDCKVFVLTVLKQFSNCMAELQAKDNTTC", "modifications": "left off: small tags and cut ends", "notes": "recombinant IL31 with a C-terminal fusion of SNAP, produced in E. Coli"}, "B2": {"name": "IL31: native recombinant IL31 (Peprotech) (protein)", "chain": "B1 chain"}, "B3": {"name": "IL31^K138A-SNAP: recombinant fusion protein of murine IL31 point mutant K138A with SNAP (protein)", "chain": "B1 chain with K115A", "modifications": "left off: small tags and cut ends"}}, "key": {"[1]": {"system": "primary keratinocytes", "test": "In-vitro photo-ablation of primary keratinocytes (propidium iodide staining)", "format": "cell-based, mouse", "details": "wild type keratinocytes; near infra-red light; 24 hours after", "procedure": "1 μM IL31^SNAP and 3 μM BG-IR700 were coupled for 1 hour at 37° C. The coupling reaction was applied for 10 minutes at 37° C. on primary wild type and IL31RA^−/− keratinocytes. Cells were then exposed to near infra-red light (680 nm) at 40 J/cm^2 for 2 minutes. 24 hours after light exposure cell death was assessed by Propidium iodide (PI) staining (Invitrogen #P3566) and cells were imaged with an epifluorescent microscope."}, "[2]": {"system": "HEK293T cells expressing TrkB/p75", "test": "BDNF^SNAP-IR700 photoablation of HEK293T cells (propidium iodide)", "format": "cell-based", "details": "HEK293T cells expressing TrkB/p75; 24 hours after brief illumination", "description": "In initial experiments BDNF^SNAP-IR700 was applied to HEK293T cells expressing TrkB/p75 and cell death assayed following near infrared illumination."}, "[3]": {"system": "Calcipotriol model of atopic dermatitis", "test": "Calcipotriol model of atopic dermatitis", "details": "prevention: injection and near IR illumination 3 days prior to Calcipotriol"}, "[4]": {"system": "TrkB positive afferents", "test": "Innervation of skin and DRG neuron counts after photoablation", "format": "in vivo, mouse", "details": "7 days after photoablation (13 days post-SNI)", "description": "Prior to photoablation, TrkB positive lanceolate endings were detected around hair follicles (FIG. 9a) and innervating Meissner corpuscles in the plantar surface of the paw. […] It was further investigated whether loss of TrkB^CreERT2 neurons was also evident at the level of the cell soma by analyzing the number of TrkB^CreERT2 positive neurons in the DRG."}, "[5]": {"system": "TrkB positive neurons", "test": "Diphtheria toxin mediated ablation of TrkB+ sensory neurons in TrkBCreERT2::AviliDTR mice", "format": "in vivo, mouse", "details": "systemic injection; DRG sections"}, "[6]": {"system": "IL31 Receptor A (IL31RA)", "test": "Binding studies in primary keratinocyte cultures with BG-Surface549 labelled ligand", "design": "species or system mouse", "description": "The inventors produced recombinant IL31 with a C-terminal fusion of SNAP (IL31^SNAP) in E. Coli. […] To determine whether IL31^SNAP was functional the inventors first performed binding studies in primary keratinocyte cultures. IL31^SNAP was labelled in vitro with BG-Surface549 and applied to keratinocytes from wildtype or IL31 Receptor A (IL31RA) knockout mice (IL31RA^−/−). […] The inventors further examined IL31^SNAP labelling in vivo by injecting IL31^SNAP-Surface549 intradermally into the back skin of wild type and IL31RA^−/− mice. […] Finally, the inventors determined whether IL31^SNAP was active by quantifying scratching behavior in mice upon intradermal injection. […] Thus the IL31^SNAP retains the functional properties of native IL31.\nPrimary keratinocytes were isolated from 1-3 day-old wild type and IL31RA^−/− mice as previously described (25). Briefly, newborn mouse skin was removed and incubated flat in cold and freshly thawed trypsin overnight, at 4° C., with the dermis side down. The next day, epidermis was peeled off, triturated and keratinocytes were cultured in serum free media (Invitrogen #10744-019) on Collagen I (Sigma #3867)-coated dishes (Ibidi #81151). All experiments were performed on 48-72 hours cultured cells.\nCells were incubated with the coupling reaction for […] at 37° C., then washed 3 times in CIB; and imaged using confocal microscope."}, "[7]": {"system": "phosphorylated Akt, pMAPK and pSTAT3", "test": "Immunoblot of IL31 downstream signaling in injected skin", "format": "in vivo, mouse", "details": "skin harvested 1 hour after subcutaneous injection, 5 μM", "description": "A conceptual problem of using IL31^SNAP therapeutically is that it in itself evokes itch. The inventors therefore sought to engineer IL31^SNAP to obtain a ligand that still binds to IL31 receptor complex but no longer promotes signaling. […] The K138A mutation denotes the murine IL31 mutations. The corresponding mutation in the human IL31 protein is at position K134 in the human IL31 (SEQ ID NO: 1). The inventors generated a recombinant IL31^K138A-SNAP fusion protein, labelled it with BG-Surface549 and applied it to keratinocytes. […] Importantly, such signal was not present in IL31RA^−/− keratinocytes (FIG. 2b). The inventors further assessed cellular signaling pathways activated by IL31^SNAP and […] in the skin by examining levels of phosphorylated Akt, pMAPK and pSTAT3 which have all been previously implicated in IL31 downstream signaling (14, 21, 22). […]\nTo assess the coupling reaction, 10 and 20 pmol IL31^SNAP was coupled with 30 and 60 pmol BG549 respectively for 1 hour at 37° C. […] The bands corresponding to the binding of IL31^SNAP with BG549 were visualized by gel fluorescence. […] Protein lysate was quantified by Bradford assay. […] Bands were visualized using the ECL detection system (Amersham #RPN2106); band density was calculated using ImageJ and the levels of phosphorylated proteins were normalized to the total counterpart."}, "[8]": {"system": "wild type and IL31RA^−/− mice", "test": "Scratching behavior upon intradermal injection of the ligand", "format": "in vivo, mouse", "details": "5 μM"}}, "note": "Changes are numbered by the printed parent chain. Numbers in names are those of the source. Entries after “also recorded” stand apart in the source; their conditions may differ.", "data": [{"molecule": "BG-PEG11-IRDye®700DX [IR700]", "values": [{"measurement": "cell death after illumination", "setting": "[1]", "result": "not evident"}, {"measurement": "cell death after near infrared illumination", "setting": "[2]", "result": "not evident"}, {"measurement": "development of atopic dermatitis-like indicators", "setting": "[3]", "result": "ineffective at blocking the progression of the condition"}, {"measurement": "innervation of hairy and glabrous skin", "setting": "[4]", "result": "no apparent reduction in innervation"}]}, {"molecule": "diphtheria toxin", "values": [{"measurement": "ablation of TrkBCreERT2::AviliDTR and TrkB mRNA positive neurons", "setting": "[5]", "result": "~90", "unit": "%"}, {"measurement": "expression of other markers", "setting": "[5]", "result": "no change"}, {"measurement": "reduction in the number of NF200 positive neurons", "setting": "[5]", "result": "~40", "unit": "%"}]}, {"molecule": "B1", "values": [{"measurement": "fluorescent signal in keratinocytes", "setting": "[6]; IL31RA^−/− keratinocytes", "result": "not present"}, {"measurement": "fluorescent signal in keratinocytes", "setting": "[6]; wildtype keratinocytes", "result": "strong fluorescent signal internalized"}, {"measurement": "phosphorylation of Akt, MAPK and STAT3 in skin", "setting": "[7]", "result": "increased phosphorylation in each pathway"}, {"measurement": "scratching behavior evoked by the ligand", "setting": "[8]; IL31RA^−/− mice", "result": "did not evoke scratching"}, {"measurement": "scratching behavior evoked by the ligand", "setting": "[8]; wildtype mice", "result": "evoked robust scratching; also recorded: induced robust scratching"}]}, {"molecule": "B2", "values": [{"measurement": "scratching behavior evoked by the ligand", "setting": "[8]; IL31RA^−/− mice", "result": "did not evoke scratching"}]}, {"molecule": "B3", "values": [{"measurement": "fluorescent signal in keratinocytes", "setting": "[6]; IL31RA^−/− keratinocytes", "result": "not present"}, {"measurement": "fluorescent signal in keratinocytes", "setting": "[6]; wildtype keratinocytes", "result": "Pronounced fluorescence"}, {"measurement": "phosphorylation of Akt, MAPK and STAT3 in skin", "setting": "[7]", "result": "increase was absent"}, {"measurement": "scratching behavior evoked by the ligand", "setting": "[8]; wildtype mice", "result": "did not evoke any scratching above baseline levels"}]}]}
